Measured values: PMC3561323 (PLoS ONE, 2013)

Target: integrin linked kinase (ILK), full-length human (human, UniProt Q13418 1-452)
Test: SEC; purified IPPmin complex on a calibrated gel-filtration column (Superdex 200 10/300 GL); 20 mM Tris pH 7.5, 150 mM NaCl, 1 mM DTT
Conditions: both partners purified

integrin linked kinase (ILK), full-length human, sequence (Q13418 whole entry): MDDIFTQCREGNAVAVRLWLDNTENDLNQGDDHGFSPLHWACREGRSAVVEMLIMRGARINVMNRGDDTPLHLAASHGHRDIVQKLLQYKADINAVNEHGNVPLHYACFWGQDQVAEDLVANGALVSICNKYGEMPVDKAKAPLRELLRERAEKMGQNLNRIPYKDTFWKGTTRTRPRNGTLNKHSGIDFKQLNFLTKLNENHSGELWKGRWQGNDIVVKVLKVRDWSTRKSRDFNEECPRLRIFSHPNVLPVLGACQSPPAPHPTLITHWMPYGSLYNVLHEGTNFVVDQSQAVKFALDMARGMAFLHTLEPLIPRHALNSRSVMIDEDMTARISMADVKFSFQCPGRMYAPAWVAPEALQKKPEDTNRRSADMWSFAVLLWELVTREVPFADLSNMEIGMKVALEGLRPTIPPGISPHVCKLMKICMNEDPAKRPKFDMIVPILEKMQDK

binding result: binds
B1: LIM1 domain of PINCH1 (domain or fragment, human, UniProt P48059 6-68, looked up)
chain: ASATCERCKGGFAPAEKIVNSNGELYHEQCFVCAQCFQQFPEGLFYEFEGRKYCEHDFQMLFA
